In article PMC9585082, “Structural insight into the ligand binding mechanism of aryl hydrocarbon receptor” (Nature Communications, 2022):

Assays:
Conditions in all cases: both partners purified
[1] = molecular target: T1, 6xHis-SUMO-tagged dAHR PAS-B (wild type) (Drosophila melanogaster, UniProt O61543 264-381); experiment: ELISA; 100 nM 6xHis-SUMO-dAHR PAS-B (WT or mutants) coated on plates; GST-mARNT PAS-B 0.004-10 µM added, 1 h room temperature; anti-GST detection; four-parameter 'log(agonist) vs response' fit
T1 construct: Aryl hydrocarbon receptor homolog spineless (dAHR), Drosophila melanogaster, UniProt O61543, PAS-B domain aa 264-381; The printed name '6xHis-SUMO-dAHR PAS-B' puts the tag first; the end is not otherwise stated; also called 6xHis-SUMO-dAHR PAS-B; WT protein; source: E. coli Rosetta (DE3), purified; fusion tag retained
T1 sequence (looked up): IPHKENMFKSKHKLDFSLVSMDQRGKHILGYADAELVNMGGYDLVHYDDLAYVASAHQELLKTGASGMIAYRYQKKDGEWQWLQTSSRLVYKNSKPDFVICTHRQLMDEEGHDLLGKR

[2] = molecular target: T2, 6xHis-SUMO-tagged dAHR PAS-B Y305A (Drosophila melanogaster, UniProt O61543 264-381, Y305A); experiment: as above
T2 construct: Aryl hydrocarbon receptor homolog spineless (dAHR), Drosophila melanogaster, UniProt O61543, PAS-B domain aa 264-381; source: E. coli Rosetta (DE3), purified as the WT protein; fusion tag retained
T2 sequence (looked up): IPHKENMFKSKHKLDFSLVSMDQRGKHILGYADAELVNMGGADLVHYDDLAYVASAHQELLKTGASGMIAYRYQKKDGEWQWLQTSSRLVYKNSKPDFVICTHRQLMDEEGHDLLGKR

[3] = molecular target: T3, 6xHis-SUMO-tagged dAHR PAS-B Y310A (Drosophila melanogaster, UniProt O61543 264-381, Y310A); experiment: as above
T3 construct: Aryl hydrocarbon receptor homolog spineless (dAHR), Drosophila melanogaster, UniProt O61543, PAS-B domain aa 264-381; source: E. coli Rosetta (DE3), purified as the WT protein; fusion tag retained
T3 sequence (looked up): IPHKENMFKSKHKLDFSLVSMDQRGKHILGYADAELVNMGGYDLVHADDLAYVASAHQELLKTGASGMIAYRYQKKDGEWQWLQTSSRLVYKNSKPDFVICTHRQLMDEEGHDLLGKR

[4] = molecular target: T4, 6xHis-tagged dAHR PAS-B, Red-labeled (Drosophila melanogaster, UniProt O61543 264-381, labeled with the MO Red-Tris-NTA protein labeling kit); experiment: MST; 50 nM Red-labeled 6xHis-dAHR PAS-B; mARNT PAS-B 100 µM to 3 nM; PBS, 0.05% Tween-20, 2.5% DMSO, 0.5 mM TCEP; without αNF
T4 construct: Aryl hydrocarbon receptor homolog spineless (dAHR), Drosophila melanogaster, UniProt O61543, PAS-B domain aa 264-381; the only His-tagged dAHR PAS-B construct it describes is the 6xHis-SUMO fusion (pET-28s), so SUMO may also have been present; also called Red-labeled dAHR PAS-B; source: purified; E. coli Rosetta (DE3) is the host named for pET-28s-dAHR PAS-B
T4 sequence (looked up): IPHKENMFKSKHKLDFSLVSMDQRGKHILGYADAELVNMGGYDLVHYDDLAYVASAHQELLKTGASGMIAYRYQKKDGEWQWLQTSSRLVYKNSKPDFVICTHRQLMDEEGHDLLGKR

[5] = molecular target: T4, 6xHis-tagged dAHR PAS-B, Red-labeled; experiment: MST; 50 nM Red-labeled 6xHis-dAHR PAS-B; mARNT PAS-B 100 µM to 3 nM; PBS, 0.05% Tween-20, 2.5% DMSO, 0.5 mM TCEP; with 1 µM αNF

| Binder | Kd [1] [nM] | Kd [2] [nM] | Kd [3] [nM] | Kd [4] [nM] | Kd [5] [nM] |
| --- | --- | --- | --- | --- | --- |
| GST-tagged mARNT PAS-B (domain or fragment, Aryl hydrocarbon receptor nuclear translocator (ARNT), mouse, PAS-B domain aa 360-465; GST retained for ELISA; also called GST-fused recombinant mARNT PAS-B; source: pGEX-6P-1 construct, purified) not shown | ~380 | 1800 | 500 |  |  |
| mouse ARNT PAS-B domain (aa 360-465), fusion tag removed (domain or fragment, Aryl hydrocarbon receptor nuclear translocator (ARNT), mouse, PAS-B domain aa 360-465; Subcloned into pET-28s 'similarly' to the AHR PAS-B domains; tag removed with ULP1; also called mARNT PAS-B) not shown |  |  |  | 300 | ~250 |
